In a protein production outcome set (Wang et al. 2014):

test: label from the status in PepcDB records
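Also: failed if final PepcDB status was selected cloned or expressed and not failed if soluble or beyond.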

Row | Sequence | protein production
1 | MEKLVLGIIGIFFVISGFDYINNNKLGLGDKFKEGMISMGSIAISMVGIYSLSPLIGEGIGFLLTPISNFLGIDSSIFPSMFLAVDMGALGIAESLSSNIHMYWISGVIIASTLGATISFSIPLALGIIEEKYLEDLTTGLLYGIMTLPIAPIVAGLFLGVDIKLLLFNILPLIIFAILLAVFMNKFKDTTVKFFIKLGKLIQLVSILGLLVLGFLSIIGIKPIGSILPIDEALSVVGKIAIFLGGAYPLINFITEKFSKVLSKIGEKINIDEFSIAAFLGTLASNIILFQSFNKMSSKGRIALTAFSVSGAFVIGGQLGFVSLKTPEIINIYIASKLIAGITAMVVALIVHRKTEENLNDESQSEENIPVLES | failed
2 | MEKPIKTQWQLLMDNRNRFFWLLQAGGWIGYALVNYIGSLMHEMRDIYTLIIILGAYAGFLSTIPLRYLYRRIWEFPPALMVLIAIVVSYVTAVAWAIVDNATYWEIYKFGFRPDSPFFYLKNSLAKFYIILSWSGLYFGIKYYQMLQEEKQKALLASSMAHQAQLKMLRYQLNPHFLFNTLNAISTLILLKENEKANLMVNKLSHFLRFSLDNEPIKKVTLEKEVDALLLYLDIEKVRFDEQLEIDIHLSDETKNALVPSLICQPLIENSIKYAISNVEGVGKIRVRSWSEKENLILEVCDNGPKIETDPEKLFRKDGVGLNNTRQRLKSLYGKQYRFEMLKGAESGLCVRITIPMEMLESQR | failed
3 | MEKRFYILTIVVEDREKAYRQVNELLHNFSEDILLRVGYPVREENMAIIFLVLKTDNDTIGALSGKLGQISGVRVKTVPLKR | not failed
4 | MEKYFGNAYRGDPGVPHADADRFVNIWIGSAAFSVLTWVNPYMWQLSNQFKYFSLSLSLELSNSNLGTFGFSCLISELGFLFMCFCSSLNCSGENYVLILLV | failed
5 | MEKYILSIDQGTTSSRAILFNQKGEIAGVAQREFKQYFPQSGWVEHDANEIWTSVLAVMTEVINENDVRADQIAGIGITNQRETTVVWDKHTGRPIYHAIVWQSRQTQSICSELKQQGYEQTFRDKTGLLLDPYFAGTKVKWILDNVEGAREKAENGDLLFGTIDTWLVWKLSGKAAHITDYSNASRTLMFNIHDLEWDDELLELLTVPKNMLPEVKASSEVYGKTIDYHFYGQEVPIAGVAGDQQAALFGQACFERGDVKNTYGTGGFMLMNTGDKAVKSESGLLTTIAYGIDGKVNYALEGSIFVSGSAIQWLRDGLRMINSAPQSESYATRVDSTEGVYVVPAFVGLGTPYWDSEARGAIFGLTRGTEKEHFIRATLESLCYQTRDVMEAMSKDSGIDVQSLRVDGGAVKNNFIMQFQADIVNTSVERPEIQETTALGAAFLAGLAVGFWESKDDIAKNWKLEEKFDPKMDEGEREKLYRGWKKAVEATQVFKTE | failed
6 | MELAVGNLSEGNASCPEPPAPEPGPLFGIGVENFVTLVVFGLIFALGVLGNSLVITVLARSKPGKPRSTTNLFILNLSIADLAYLLFCIPFQATVYALPTWVLGAFICKFIHYFFTVSMLVSIFTLAAMSVDRYVAIVHSRRSSSLRVSRNALLGVGCIWALSIAMASPVAYHQGLFHPRASNQTFCWEQWPDPRHKKAYVVCTFVFGYLLPLLLICFCYAKVLNHLHKKLKNMSKKSEASKKKTAQTVLVVVVVFGISWLPHHIIHLWAEFGVFPLTPASFLFRITAHCLAYSNSSVNPIIYAFLSENFRKAYKQVFKCHIRKDSHLSDTKENKSRIDTPPSTNCTHV | failed
7 | MELDMGKVITAKRKEKSWTQEQLAQAVGVSTPAVSKWETGATYPDITLLPPIARALNTTVDELFSYQNELSDNDVSGFTQKATSLYEAEGFDAGWNYCQKLLQEFPNSIPLKFYLGNLFQSFMIMKTDLGKEDIQSCYRQAAILYEEVLLSGYPKFTYHATLILVGFYTMLNELDRAEELLDSLPKLKTDPDFLYPSIYALRGKNEEAMKLTQENIRRYISRVSHGLSLLGAFAREQEDMDKACTLAKMNLEITKLLGISREIAYADMIKIMVARGDKEAALTYLEEYTQHILELSYDYAKSPVFNRVTEKFQDPSYVKKVLAQSILIDKEYTPLKEEPRYLQIVHRLRQVIDTQTHTFRE | failed
8 | MELENIVANTVLLKAREGGGGNRKGKSKKWRQMLQFPHISQCEELRLSLERDYHSLCERQPIGRLLFREFCATRPELSRCVAFLDGVAEYEVTPDDKRKACGRQLTQNFLSHTGPDLIPEVPRQLVTNCTQRLEQGPCKDLFQELTRLTHEYLSVAPFADYLDSIYFNRFLQWKWLERQPVTKNTFRQYRVLGKGGFGEVCACQVRATGKMYACKKLEKKRIKKRKGEAMALNEKQILEKVNSRFVVSLAYAYETKDALCLVLTLMNGGDLKFHIYHMGQAGFPEARAVFYAAEICCGLEDLHRERIVYRDLKPENILLDDHGHIRISDLGLAVHVPEGQTIKGRVGTVGYMAPEVVKNERYTFSPDWWALGCLLYEMIAGQSPFQQRKKKIKREEVERLVKEVPEEYSERFSPQARSLCSQLLCKDPAERLGCRGGSAREVKEHPLFKKLNFKRLGAGMLEPPFKPDPQAIYCKDVLDIEQFSTVKGVELEPTDQDFYQKFATGSVPIPWQNEMVETECFQELNVFGLDGSVPPDLDWKGQPPAPPKKGLLQRLFSRQDCCGNCSDSEEELPTRL | failed
9 | MELKILVTGGNVFVPGRLNAHFSTVVYLEHKDRRIIIDPGNLSSMDELEEKFSELGISPDDITDVLFTHVHLDHIFNSVLFENATFYVHEVYKTKNYLSFGTIVGRIYSKVISSWKNVVLLKGEESLFDEKVKVFHTPWHAREHLSFLLDTENAGRVLITGDITPNRLSYYDIIKGYGSVQVKNFLDRVGRIDLLVFPHDAPLKPEVKK | not failed
10 | MELLFIIAAFVMGFIALKINLPPLVGFLLAGFGLHALGFQSNDALETFADLGVTLLLFSIGLKLDIKTLLAKEIWLGATLHNVFSTLFFTFALLGLKLLGINMLANIETAQLVLFGFALSFSSTVFAVKALQEKGEMNATYGTLAIGILVMQDIFAVVFLTASTGKIPEITALALFALPLFRPLFFKLLDWAGHGEMLVLYGIFLALVAGAGTFELVGMKPDLGALILGMLLAGHAKASELSKSLFNLKEVLLICFFLNIGLSAAPTISGLGLALILILLLPVKGFLYFIIINKFKFRVRTSLLASLTLFNYSEFGLIVGGLAFKMGWLPADTLVAIAIAVSISFIISAPLNNFGHTIYQRSRHWLKEHTAERLNPMDKLINPGRAQILILGMGRIGSGAYDELKEKYGDIILGIELREESAKQHQELGRNVISGDATDPDFWERILSTSHVKLVLLAMPNHQGNQFALEQLQTRNYQGQTAAIAAYNDQIDGLIEQGVDAAFNIYHEAGSGFARHVSEQLDPQFNHHKDYITH | failed
11 | MELNNTIATPLYKQLEKKLQQEIDSGKRPAGSRLPTENELSKAYNVSRVTVRKALAELSESGYLERKSGKGTFVAEKKLERGITNGVLGFSEMCKMMNAIPGAKIIKIALEEPSEKDIQKMSLNKDEKVLVLERVRYANGKPVLLELNKFPESFSFLFEENLTDASLYDILEQHNIILDHSRKTLDIVFADTKEAKTLGISRGYPLLRINSIIHNADNTITNLCQQLCIGDKFTFII | failed
12 | MELSAIGEQVFAVESIRKKRVRKGKVEYLVKWKGWPPKYSTWEPEEHILDPRLVMAYEEKEERDRASGYRKRGPKPKRLLLQRLYSMDLRSSHKAKGKEKLCFSLTCPLGSGSPEGVVKAGAPELVDKGPLVPTLPFPLRKPRKAHKYLRLSRKKFPPRGPNLESHSHRRELFLQEPPAPDVLQAAGEWEPAAQPPEEEADADLAEGPPPWTPALPSSEVTVTDITANSITVTFREAQAAEGFFRDRSGKF | failed
13 | MELVDRYIAAVQRELPEDKRQEIGRELKANICDQLDALAEHAELTESQIADVLQQMGHPAQVAQQFVPPTPIVASEDISLFKHTLVMVLGVLFVLQVVSGATQWLGSTEGSLFGFIRHIASGFIVDACFAFTAILLSFWSISAQGKVMFGGRCQHWQPQNLPNVGPDWQHISLSDVFSDLATYLFLLLLIWNNLWMSADQLAARSVIFSANAQQLLQWFSPVILLSLLNTLWQLLRRLWTAPLLLANAGVNLAYALCLVFLAFSSPLLQYQGGEVEGIFTLQQLDTWLGHALLVTALFPGYECIRDMLRWRKLTAH | failed
14 | MELVVGRVVKSHGVTGEVVVEIRTDDPADRFAPGTRLRAKGPFDGGAEGSAVSYVIESVRQHGGRLLVRLAGVADRDAADALRGSLFVIDADDLPPIDEPDTYYDHQLVGLMVQTATGEGVGVVTEVVHTAAGELLAVKRDSDEVLVPFVRAIVTSVSLDDGIVEIDPPHGLLNLE | failed
15 | MEMKTKKAVLMSSLALSIIAFLLALILMQPNSAGYPEVPAVPTYVLFGLSAASFAVFIYEYFTATRT | failed
16 | MEMRKIGLIGGMSFESSAVYYRLVNEAVRRRRGKLHSAEVLLHSVDFQRIVDLQRAGHWDDAALLLSDVARGLVAGGADCILICSNTMHLIADAVHASVDVPLINIIDETALRLKAAGSRKPLLLATRYTMEQGFYAERMKTHDIDLMVPDADGRTLTHNVIFDELCAGQVLNASRSAVIGLIEKAKAEGADAVILGCTEICLLLDPADLPLPGFDSTAIHAEAAVEFSLRDRQ | failed
17 | MEMTNAQRLILSNQYKMMTMLDPANAERYRRLQTIIERGYGLQMRELDREFGELKEETCRTIIDIMEMYHALHVSWSNLQDQQSIDERRVTFLGFDAATEARYLGYVRFMVNVEGRYTHFDAGTHGFNAQTPMWEKYQRMLNVWHACPRQYHLSANEINQIINA | not failed
18 | MENEGASTVCPLDPGSPLFLSGDGFEPVGVLFPHAVFHFPSKEKKEAYDFMDKVVDKHRRLCDERQRLGLKNESEVDVKNEGSTSNPEPAVKEPVPEPLP | not failed
19 | MENFFNQFFESIGEDKNREGLKETPKRVQELWKFLYKGYKEDPRVALKSAYFQGVCDEMIVAQNIEFYSTCEHHLLPFLGNISVGYIPKEKIVGISAIAKLIEIYSRRLQIQERLTIQIAETFDEIIEPRGVIVVCEAKHLCMSMQGVQKQNAIIKTSVLRGLFKKDSKTRAEFMQLLKS | failed
20 | MENFVFHNPTKIVFGRGTIPKIGEEIKNAGIRKVLFLYGGGSIKKNGVYDQVVDSLKKHGIEWVEVSGVKPNPVLSKVHEAVEVAKKEKVEAVLGVGGGSVVDSAKAVAAGALYEGDIWDAFIGKYQIEKALPIFDVLTISATGTEMNGNAVITNEKTKEKYGVSSKALYPKVSIIDPSVQFTLPKEQTVYGAVDAISHILEYYFDGSSPEISNEIAEGTIRTIMKMTERLIEKPDDYEARANLAWSATIALNGTMAVGRRGGEWACHRIEHSLSALYDIAHGAGLAIVFPAWMKYVYRKNPAQFERFAKKIFGFEGEGEELILKGIEAFKNWLKKVGAPVSLKDAGIPEEDIDKIVDNVMLLVEKNLKPKGASLGRIMVLEREDVREILKLAAK | not failed
21 | MENKRAIIAVVLSFIVLVGWGYLSEYMGWTPKSVPATEQKTAASAPAPSVVTSAPEAVTPAPAFSPSTGHEVTVTTPLYKAVLHSGGGVLRQFMLSRYHMGIDRDAAPVNLIESSAIRVAPLGLLVNGQPSWNTGQWAFEGGDLNLADGQTGTLRFVGSVDGLRVVRELEFHADSYLVTEKLHLAPEGDAPRTARVGFTLGTTSLTPGESQYNLTRVAWFADGSFSEKSSTGDLEKGVLIDGSIDWAGVMSNYFLAAVAPKDTRAVLKGKLEGGVYRVAVERPDQMVNPGNSDVIVCNYWFGPKERDLLNAAPNNLGKAIDLGWFGFIARPLVTLLDFFYKYVGNYGTAIILLTILIKLVFWPLSHKSYKSMEQMKKLQPMLAKVREKHADDREKMNEEMMRLYKTYKVNPAGGCLPMLVQIPVFFGLYQALLNAIELRHAPFIAHVPFTDIVWLADLSAKDPFYVTPLVMGATMFLQQKLTPPAGDPTQAKVMMFMPVVFTFLFLNFPSGLVVYWLCNNVLSIAQQWWILRKA | failed
